B2: Pdr6/Kap122 (S. cerevisiae), full length, tag removed (natural protein)
chain: MSSIHEVVALIEELYSPHPKHDVNQIQQSLQSIQKSEQGFHLANELLSDDKYSANVKYFGALTLTVQLNTRGENDYETLWNVFRSNLLYLTKFSTLYVSNPNMYGQSLIIIKKLMSNLSLIFTKINDPQLNNAGNENMIKQWNNPINTFIQLMSVQNQNINADQLLLDSINCSLTYEQLSQFVSLSQKHNELALTFTEVIVEDLTKFQTKRHSMSQIHEVVHEHLYISTMALINLNLTAQAVFNPTVFDCITAWINYISLTRSVSSSGRMDLSEIFQNLIDLMYQSTEGSDGYENAEKILTIFGNVFANDPLLMSYDLRQQIECIFLGVVRPDSGITDISNKNSWMLQYMNYLVTNDFFSELKELAICIVDFLQINTLSVCNKLFTNIQAADNGQVQDEYIQEYIKVLLQMTNFPLTPVLQEFFSVRMVDFWLDLSDAYTNLASETLRPNSIELSTQIFQQLINIYLPKISLSVKQRIIEEEGESTSVNEFEDFRNAVSDLAQSLWSILGNDNLTNVLIDGMGQMPAASDETLIIKDTDVLFRIETMCFVLNTILVDMTLSESPWIKNIVDANKFFNQNVISVFQTGFQTSASTKVSQILKLDFVRTSTTLIGTLAGYFKQEPFQLNPYVEALFQGLHTCTNFTSKNEQEKISNDKLEVMVIKTVSTLCETCREELTPYLMHFISFLNTVIMPDSNVSHFTRTKLVRSIGYVVQCQVSNGPEEQAKYILQLTNLLSGSIEHCLASSVQLQEQQDYINCLLYCISELATSLIQPTEIIENDALLQRLSEFQSFWSSDPLQIRSKIMCTIDKVLDNSIYCKNSAFVEIGCLIVGKGLNLPDGEPYFLKYNMSEVMNFVLRHVPNCELATCLPYFVYLLEKLISEFRKELTPQEFDFMFEKILLVYYDAYIINDPDLLQMTIGFVNNVLDVKPGLAIGSKHWTSFILPQFLKLIPSREKFTIVAVAKFWTKLINNKKYNQEELTTVRQQVSSIGGDLVYQIMYGLFHTQRSDLNSYTDLLRALVAKFPIEAREWLVAVLPQICNNPAGHEKFINKLLITRGSRAAGNVILQWWLDCTTLPNYQG

Common to all, as to conditions: both partners purified
Assay [1] concerns the target B2. Kind of assay: crystal structure; Pdr6•Ubc9, 18°C, 50 mM sodium cacodylate pH 5.7, 20 mM MgCl2, 3-5% ethanol.
Assay [2] addresses T1, H14-ZZ-bdSUMO-tagged Pdr6 (S. cerevisiae, UniProt P32767 2-1081).
T1 construct: Pdr6/Kap122, S. cerevisiae; also called tagged NTR; source: E. coli Top10 F', purified (Ni(II) chelate, imidazole elution); not shown: His14, N-terminal, kept; ZZ, N-terminal, kept; bdSUMO, N-terminal, kept
T1 sequence: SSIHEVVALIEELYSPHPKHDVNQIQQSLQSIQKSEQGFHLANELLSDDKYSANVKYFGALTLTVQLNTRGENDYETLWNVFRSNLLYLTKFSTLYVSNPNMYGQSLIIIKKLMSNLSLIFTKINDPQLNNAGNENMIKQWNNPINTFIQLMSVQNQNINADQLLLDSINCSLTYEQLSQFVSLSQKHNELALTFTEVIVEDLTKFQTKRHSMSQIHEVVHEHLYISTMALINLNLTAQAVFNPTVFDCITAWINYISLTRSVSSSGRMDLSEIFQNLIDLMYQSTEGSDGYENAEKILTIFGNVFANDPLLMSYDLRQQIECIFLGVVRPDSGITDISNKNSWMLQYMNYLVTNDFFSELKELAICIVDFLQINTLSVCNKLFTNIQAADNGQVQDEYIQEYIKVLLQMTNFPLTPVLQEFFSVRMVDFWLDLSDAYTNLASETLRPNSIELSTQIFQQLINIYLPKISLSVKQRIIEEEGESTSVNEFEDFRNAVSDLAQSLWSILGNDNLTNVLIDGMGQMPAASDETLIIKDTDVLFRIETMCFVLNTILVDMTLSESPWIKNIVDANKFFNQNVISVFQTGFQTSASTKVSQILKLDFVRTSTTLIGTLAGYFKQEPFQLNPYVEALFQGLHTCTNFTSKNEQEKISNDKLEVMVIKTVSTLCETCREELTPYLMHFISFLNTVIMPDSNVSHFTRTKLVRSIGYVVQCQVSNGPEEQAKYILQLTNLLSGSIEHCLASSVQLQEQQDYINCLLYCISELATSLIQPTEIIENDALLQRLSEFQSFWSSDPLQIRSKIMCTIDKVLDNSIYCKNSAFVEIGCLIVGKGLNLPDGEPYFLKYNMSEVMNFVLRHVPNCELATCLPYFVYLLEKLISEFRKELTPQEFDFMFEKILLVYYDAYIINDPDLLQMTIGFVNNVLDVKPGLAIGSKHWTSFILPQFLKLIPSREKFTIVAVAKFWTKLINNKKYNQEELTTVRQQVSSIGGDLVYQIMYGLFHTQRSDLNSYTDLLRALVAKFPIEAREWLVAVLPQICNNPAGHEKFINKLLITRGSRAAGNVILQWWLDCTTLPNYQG
The assay can be described thus: pull-down; 1 µM H14-ZZ-bdSUMO-tagged NTR with 2 µM human or yeast Ubc9; retrieved via the tagged NTR by anti-Protein A beads, eluted by bdSENP1 protease, SDS-PAGE and Coomassie.

The target of assay [3] is human RanQ69L (residues 5-180), GTP-bound (human, UniProt P62826 5-180, Q69L). The assay can be described thus: crystal structure; Pdr6•RanGTP, hexagonal crystals, 18°C, 50 mM sodium acetate pH 5.5, 220 mM MgCl2, 19% pentaerythritol propoxylate, 10% 2-Methyl-2,4-pentanediol.

B1: S. cerevisiae Ubc9, full length (enzyme, UniProt P50623 1-157, looked up)
chain: MSSLCLQRLQEERKKWRKDHPFGFYAKPVKKADGSMDLQKWEAGIPGKEGTNWAGGVYPITVEYPNEYPSKPPKVKFPAGFYHPNVYPSGTICLSILNEDQDWRPAITLKQIVLGVQDLLDSPNPNSPAQEPAWRSFSRNKAEYDKKVLLQAKQYSK
notes: Ubc9, SUMO-conjugating E2 enzyme, S. cerevisiae, full length; residues 2-157 are in the model; Full length is said for the crystallised protein; also called yeast Ubc9; source: NEB Express cells, purified (Ni(II) chelate)
In the case of B1, the binding result in assay [1] and in assay [2] was “binds” in each case.

For the molecule B2, the binding result in assay [3] was “binds”.

The record behind these values is publication PMC6548137, “Structural basis for the nuclear import and export functions of the biportin Pdr6/Kap122” (The Journal of Cell Biology, 2019).
